Assay results: IntAct's records for PubMed 29039417

B1: BBSome complex member BBS1 (Homo sapiens), Q8NFJ9 (parent)
chain: MAAASSSDSDACGAESNEANSKWLDAHYDPMANIHTFSACLALADLHGDGEYKLVVGDLGPGGQQPRLKVLKGPLVMTESPLPALPAAAATFLMEQHEPRTPALALASGPCVYVYKNLRPYFKFSLPQLPPNPLEQDLWNQAKEDRIDPLTLKEMLESIRETAEEPLSIQSLRFLQLELSEMEAFVNQHKSNSIKRQTVITTMTTLKKNLADEDAVSCLVLGTENKELLVLDPEAFTILAKMSLPSVPVFLEVSGQFDVEFRLAAACRNGNIYILRRDSKHPKYCIELSAQPVGLIRVHKVLVVGSTQDSLHGFTHKGKKLWTVQMPAAILTMNLLEQHSRGLQAVMAGLANGEVRIYRDKALLNVIHTPDAVTSLCFGRYGREDNTLIMTTRGGGLIIKILKRTAVFVEGGSEVGPPPAQAMKLNVPRKTRLYVDQTLREREAGTAMHRAFQTDLYLLRLRAARAYLQALESSLSPLSTTAREPLKLHAVVQGLGPTFKLTLHLQNTSTTRPVLGLLVCFLYNEALYSLPRAFFKVPLLVPGLNYPLETFVESLSNKGISDIIKVLVLREGQSAPLLSAHVNMPGSEGLAAA
partner: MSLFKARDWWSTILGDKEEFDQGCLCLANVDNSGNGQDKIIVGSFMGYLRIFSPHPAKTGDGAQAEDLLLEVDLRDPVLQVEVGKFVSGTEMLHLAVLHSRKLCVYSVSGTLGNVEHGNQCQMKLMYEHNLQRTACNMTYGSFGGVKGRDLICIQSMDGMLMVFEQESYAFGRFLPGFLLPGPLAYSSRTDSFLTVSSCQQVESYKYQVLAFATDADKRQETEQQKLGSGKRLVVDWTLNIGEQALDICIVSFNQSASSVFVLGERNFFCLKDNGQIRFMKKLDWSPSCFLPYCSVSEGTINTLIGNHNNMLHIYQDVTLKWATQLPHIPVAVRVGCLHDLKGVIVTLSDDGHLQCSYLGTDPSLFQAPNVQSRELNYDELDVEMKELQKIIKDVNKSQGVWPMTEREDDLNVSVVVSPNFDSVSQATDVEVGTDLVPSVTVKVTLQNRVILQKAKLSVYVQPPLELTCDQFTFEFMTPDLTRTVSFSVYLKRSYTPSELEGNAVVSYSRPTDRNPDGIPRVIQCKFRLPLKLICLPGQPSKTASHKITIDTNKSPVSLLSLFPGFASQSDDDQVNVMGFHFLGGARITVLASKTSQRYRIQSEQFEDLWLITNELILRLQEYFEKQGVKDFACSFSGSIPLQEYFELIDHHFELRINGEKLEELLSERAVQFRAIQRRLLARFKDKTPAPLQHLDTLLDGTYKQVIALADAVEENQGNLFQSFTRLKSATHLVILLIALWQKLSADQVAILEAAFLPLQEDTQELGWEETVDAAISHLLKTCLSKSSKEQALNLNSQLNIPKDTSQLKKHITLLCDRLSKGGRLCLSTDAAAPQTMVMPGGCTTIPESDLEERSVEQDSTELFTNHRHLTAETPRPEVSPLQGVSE

Variants of: B1
Conditions: with pthb1_human BBS9, Q3SYG4

Variant	effect of a mutation on the interaction
MAAASSSDSDACGAESNEANSKWLDAHYDPMANIHTFSACLALADLHGDGEYKLVVGDLGPGGQQPRLKVLKGPLVMTESPLPALPAAAATFLMEQHEPRTPALALASGPCVYVYKNLRPYFKFSLPQLPPNPLEQDLWNQAKEDRIDPLTLKEMLESIRETAEEPLSIQSLRFLQLELSEMEAFVNQHKSNSIKRQTVITTMTTLKKNLADEDAVSCLVLGTENKELLVLDPEAFTILAKMSLPSVPVFLEVSGQFDVEFRLAAACRNGNIYILRRDSKHPKYCIELSAQPVGLIRVHKVLVVGSTQDSLHGFTHKGKKLWTVQMPAAILTMNLLEQHSRGLQAVMAGLANGEVRIYRDKALLNVIHTPDAVTSLCFGRYGREDNTLIMTTRGGGLIIKILKRTAVFVEGGSEVGPPPAQAMKLNVPRKTRLYVDQTLREREAGTAMHRAFQTDLYLLRLRAARAYLQALESSLSPLSTTAREPLKLHAVVQGLGPTFKLTLHLQNTSTTRPVLGLLVCFLYNEALYSLPRAFFKVPLLVPGLNYPLETFVESLSNKGISDIIKVLVLREGQSAPLLSAEVNMPGSEGLAAA [H581E]	with no effect
MAAASSSDSDACGAESNEANSKWLDAHYDPMANIHTFSACLALADLHGDGEYKLVVGDLGPGGQQPRLKVLKGPLVMTESPLPALPAAAATFLMEQHEPRTPALALASGPCVYVYKNLRPYFKFSLPQLPPNPLEQDLWNQAKEDRIDPLTLKEMLESIRETAEEPLSIQSLRFLQLELSEMEAFVNQHKSNSIKRQTVITTMTTLKKNLADEDAVSCLVLGTENKELLVLDPEAFTILAKMSLPSVPVFLEVSGQFDVEFRLAAACRNGNIYILRRDSKHPKYCIELSAQPVGLIRVHKVLVVGSTQDSLHGFTHKGKKLWTVQMPAAILTMNLLEQHSRGLQAVMAGLANGEVRIYRDKALLNVIHTPDAVTSLCFGRYGREDNTLIMTTRGGGLIIKILKRTAVFVEGGSEVGPPPAQAMKLNVPRKTRLYVDQTLREREAGTAMHRAFQTDLYLLRLRAARAYLQALESSLSPLSTTAREPLKLHAVVQGLGPTFKLTLHLQNTSTTRPVLGLLVCFLYNEALYSLPRAFFKVPLLVPGLNYPLETFVESLSNKGISDIIKVLVLREGQSAPLLSAAVNMPGSEGLAAA [H581A]	with no effect
MAAASSSDSDACGAESNEANSKWLDAHYDPMANIHTFSACLALADLHGDGEYKLVVGDLGPGGQQPRLKVLKGPLVMTESPLPALPAAAATFLMEQHEPRTPALALASGPCVYVYKNLRPYFKFSLPQLPPNPLEQDLWNQAKEDRIDPLTLKEMLESIRETAEEPLSIQSLRFLQLELSEMEAFVNQHKSNSIKRQTVITTMTTLKKNLADEDAVSCLVLGTENKELLVLDPEAFTILAKMSLPSVPVFLEVSGQFDVEFRLAAACRNGNIYILRRDSKHPKYCIELSAQPVGLIRVHKVLVVGSTQDSLHGFTHKGKKLWTVQMPAAILTMNLLEQHSRGLQAVMAGLANGEVRIYRDKALLNVIHTPDAVTSLCFGRYGREDNTLIMTTRGGGLIIKILKRTAVFVEGGSEVGPPPAQAMKLNVPRKTRLYVDQTLREREAGTAMHRAFQTDLYLLRLRAARAYLQALESSLSPLSTTAREPLKLHAVVQGLGPTFKLTLHLQNTSTTRPVLGLLVCFLYNEALYSLPRAFFKVPLLVPGLNYPLETFVESLSNKGISDIIKVLVLREGQSAPLLSAKVNMPGSEGLAAA [H581K]	with no effect
MAAASSSDSDACGAESNEANSKWLDAHYDPMANIHTFSACLALADLHGDGEYKLVVGDLGPGGQQPRLKVLKGPLVMTESPLPALPAAAATFLMEQHEPRTPALALASGPCVYVYKNLRPYFKFSLPQLPPNPLEQDLWNQAKEDRIDPLTLKEMLESIRETAEEPLSIQSLRFLQLELSEMEAFVNQHKSNSIKRQTVITTMTTLKKNLADEDAVSCLVLGTENKELLVLDPEAFTILAKMSLPSVPVFLEVSGQFDVEFRLAAACRNGNIYILRRDSKHPKYCIELSAQPVGLIRVHKVLVVGSTQDSLHGFTHKGKKLWTVQMPAAILTMNLLEQHSRGLQAVMAGLANGEVRIYRDKALLNVIHTPDAVTSLCFGRYGREDNTLIMTTRGGGLIIKILKRTAVFVEGGSEVGPPPAQAMKLNVPRKTRLYVDQTLREREAGTAMHRAFQTDLYLLRLRAARAYLQALESSLSPLSTTAREPLKLHAVVQGLGPTFKLTLHLQNTSTTRPVLGLLVCFLYNEALYSLPRAFFKVPLLVPGLNYPLETFVESLSNKGISDIIKVLVLREGQSAPLKSAHVNMPGSEGLAAA [L578K]	with no effect
MAAASSSDSDACGAESNEANSKWLDAHYDPMANIHTFSACLALADLHGDGEYKLVVGDLGPGGQQPRLKVLKGPLVMTESPLPALPAAAATFLMEQHEPRTPALALASGPCVYVYKNLRPYFKFSLPQLPPNPLEQDLWNQAKEDRIDPLTLKEMLESIRETAEEPLSIQSLRFLQLELSEMEAFVNQHKSNSIKRQTVITTMTTLKKNLADEDAVSCLVLGTENKELLVLDPEAFTILAKMSLPSVPVFLEVSGQFDVEFRLAAACRNGNIYILRRDSKHPKYCIELSAQPVGLIRVHKVLVVGSTQDSLHGFTHKGKKLWTVQMPAAILTMNLLEQHSRGLQAVMAGLANGEVRIYRDKALLNVIHTPDAVTSLCFGRYGREDNTLIMTTRGGGLIIKILKRTAVFVEGGSEVGPPPAQAMKLNVPRKTRLYVDQTLREREAGTAMHRAFQTDLYLLRLRAARAYLQALESSLSPLSTTAREPLKLHAVVQGLGPTFKLTLHLQNTSTTRPVLGLLVCFLYNEALYSLPRAFFKVPLLVPGLNYPLETFVESLSNKGISDIIKVLVLREGQSAPLESAHVNMPGSEGLAAA [L578E]	with no effect
